The values below come from PMC5624674.

The test addresses T1, λCI-CbtA fusion protein (wild-type CbtA toxin of E. coli) (E. coli), P64524.
T1 chain: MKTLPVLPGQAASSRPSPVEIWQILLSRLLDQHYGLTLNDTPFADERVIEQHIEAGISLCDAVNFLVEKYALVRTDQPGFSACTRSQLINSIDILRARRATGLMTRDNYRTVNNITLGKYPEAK
Put plainly: two-hybrid. The conditions noted are these: remark: other sources report otherwise.

B1: α-MreB fusion protein (wild-type E. coli MreB), P0A9X4 1-347 (natural protein)
chain: MLKKFRGMFSNDLSIDLGTANTLIYVKGQGIVLNEPSVVAIRQDRAGSPKSVAAVGHDAKQMLGRTPGNIAAIRPMKDGVIADFFVTEKMLQHFIKQVHSNSFMRPSPRVLVCVPVGATQVERRAIRESAQGAGAREVFLIEEPMAAAIGAGLPVSEATGSMVVDIGGGTTEVAVISLNGVVYSSSVRIGGDRFDEAIINYVRRNYGSLIGEATAERIKHEIGSAYPGDEVREIEVRGRNLAEGVPRGFTLNSNEILEALQEPLTGIVSAVMVALEQCPPELASDISERGMVLTGGGALLRNLDRLLMEETGIPVVVAEDPLTCVARGGGKALEMIDMHGGDLFSEE
Turning to B1, the fold increase in lacZ expression was 3 fold.
